The target in assay [1] is T1, HPV18 E7 protein, recombinant (His-TEV-E7 fusion from E. coli) (Human Papilloma Virus type 18 (HPV18), UniProt P06788 1-105, CKII phosphorylation of the consensus site serines in the antigen preparation of Example 2; biotin on primary amines in the SPR assay).
T1 construct: mature; also called VE7_HPV18; not shown: N-terminal 6x Histidine tag and TEV cleavage site of the vector
T1 sequence: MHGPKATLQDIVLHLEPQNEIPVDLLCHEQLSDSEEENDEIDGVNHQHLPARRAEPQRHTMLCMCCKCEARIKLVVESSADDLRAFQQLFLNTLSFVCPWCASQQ
Put plainly: ELISA and dot-blot, semiquantitative crossreactivity.

For assay [2], the target named is T1, HPV18 E7 protein, recombinant …. Put plainly: ELISA and dot-blot, semiquantitative crossreactivity (+ weak interaction).
Experimental: Using ELISA and dot-blot techniques semiquantitative crossreactivities of the isolated mAbs was analysed. For this various mAbs were tested against the accepted high risk species.
Assay [3] deals with T2, HPV45 E7 protein, recombinant (His-TEV-E7 fusion from E. coli) (Human Papilloma Virus type 45 (HPV45), UniProt P21736 1-106, CKII phosphorylation of the consensus site serines in the antigen preparation of Example 2; biotin on primary amines in the SPR assay).
T2 construct: mature; also called VE7_HPV45; not shown: N-terminal 6x Histidine tag and TEV cleavage site of the vector
T2 sequence: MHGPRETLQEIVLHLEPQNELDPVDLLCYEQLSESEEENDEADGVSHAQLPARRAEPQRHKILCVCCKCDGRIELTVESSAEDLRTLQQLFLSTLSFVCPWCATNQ
Briefly: SPR (BIAcore X100), biotin-E7 on streptavidin SA chip, antibody as analyte, bivalent analyte fit, 25 C.

Assay [4] has as its target T1, HPV18 E7 protein, recombinant …. The assay is described as above.
The target of assay [5] is T3, HPV31 E7 protein, recombinant (His-TEV-E7 fusion from E. coli) (Human Papilloma Virus type 31 (HPV31), UniProt P17387 1-98, CKII phosphorylation of the consensus site serines in the antigen preparation of Example 2).
T3 construct: mature; also called VE7_HPV31; not shown: N-terminal 6x Histidine tag and TEV cleavage site of the vector
T3 sequence: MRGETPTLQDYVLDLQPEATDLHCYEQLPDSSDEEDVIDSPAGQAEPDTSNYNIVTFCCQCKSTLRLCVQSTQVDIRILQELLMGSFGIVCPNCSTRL
Put plainly: ELISA, HPV31E7 immobilised on polystyrene plates in 3-fold dilution steps, detected with ACAB452; no concentrations printed on the X axis.

B1: ACAB164 (antibody, V domains shown)
VH: EVQLQQSGLALVQPGASVKISCRTSGYTFTEYTLHWVKQSHGKSLEWIGGINPNNGSPKYNQKFKGKATLTVDKSSSTAYMELRSLTSEDSAVYYCARLDINSFFDYWGQGTTLTVSS
VL: DVVMTQSPLSLPVSLGDQASISCRSSQSLVHSNGNTYLQWYLQKPGQSPKLLIYKLSNRFSGVPDRFSGSGSGTDFTLKISRVEAEDLGVYSCSQTTHVPPTFGGGTKLEIKR
notes: the printed entries run on into the first residues of the constant domains; also called HPV16E7 IgG2a antibody ACAB164
B1: the binding result in assay [1] is “no binding”.

B2: ACAB161 (antibody, IgG2a, V domains shown)
VH: EVMLVESGGGLVKPGGSLKLSCAASGFTFSRYTMSWVRQTPEKRLEWVATISSGGTNTNYTDSVKGRFTISRDNAKNNLYLQMSSLRSEDTALYYCTRGVRRGDGYAMDYWGQGTSVTVSS
VL: DIVLTQAAPSVPVTPGESVSISCRSTKSLLHSNGNTYLYWFLQRPGQSPQALIYRTSNLASGVPDRFSGSGSGTAFTLRISRVEAEDVGVYYCMQHLEYPLTFGAGTKLELKR
notes: the printed entries run on into the first residues of the constant domains; also called HPV16E7 IgG2a antibody ACAB161
As for B2, the binding result in assay [2] is “binds”.

B3: ACAB452 (antibody, IgG1, V domains shown)
VH: DVQLQESGPGLVKPSQSLSLTCTVTGYSITSDYAWNWIRQFPGNKLEWVGYITYSGSTNYNPSLKSRISITRDTSKNQFFLQFNSVTSEDTATYFCARSWFAYWGQGTLVTVSS
VL: DIVMTQTPLSLPVSLGDQASISCRSSQSLVHSNGNTYLHWFLQKPGQSPKLLIYKVSNRFSGVPDRFSGSGSGTDFTLKISRVEAEDLGVYFCLQSAHVPLTFGAGTKLELTR
notes: also called HPV45E7 IgG1 antibody ACAB452
Consider B3, for which, in assay [3], the Kd stood at 10.6 nM and the association rate constant (kon) is 52100 M⁻¹ s⁻¹. For the same molecule, the kon in assay [4] came to 94700 M⁻¹ s⁻¹. In addition, in assay [5], the binding result is listed as “binds”.

The record behind these values is patent US20150023979A1 (VALDOSPAN, published 2015).
